According to publication PMC4855144:

Target: GFP-N-WASP WH1-GBD
Assay: co-IP; GFP microbeads precipitate GFP-N-WASP and fragments ΔWA, WH1, WH1-GBD from HEK293T cell extracts; endogenous CRN7 detected with mAb K37-142-1; ratio of co-IP to IP

Sequence of GFP-N-WASP WH1-GBD (O00401 whole entry, the tested form may be a part): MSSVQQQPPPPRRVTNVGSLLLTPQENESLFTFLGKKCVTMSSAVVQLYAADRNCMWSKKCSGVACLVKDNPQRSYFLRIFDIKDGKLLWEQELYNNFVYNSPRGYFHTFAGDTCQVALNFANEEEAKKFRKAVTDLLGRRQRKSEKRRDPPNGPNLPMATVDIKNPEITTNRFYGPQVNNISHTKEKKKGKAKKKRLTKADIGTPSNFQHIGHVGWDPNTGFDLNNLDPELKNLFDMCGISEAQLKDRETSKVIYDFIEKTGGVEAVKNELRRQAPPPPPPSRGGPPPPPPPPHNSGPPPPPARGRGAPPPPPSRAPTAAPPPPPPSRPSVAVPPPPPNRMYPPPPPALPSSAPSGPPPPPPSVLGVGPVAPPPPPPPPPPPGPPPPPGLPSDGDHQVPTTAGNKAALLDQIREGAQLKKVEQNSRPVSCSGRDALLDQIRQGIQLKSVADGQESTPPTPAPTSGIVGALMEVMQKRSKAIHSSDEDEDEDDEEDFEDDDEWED

- fold binding (co-IP to IP ratio) over WH1 alone: 4 fold
B1: endogenous CRN7 (Coronin7) of HEK293T cells (natural protein)
chain: MNRFRVSKFRHTEARPPRRESWISDIRAGTAPSCRNHIKSSCSLIAFNSDRPGVLGIVPLQGQGEDKRRVAHLGCHSDLVTDLDFSPFDDFLLATGSADRTVKLWRLPGPGQALPSAPGVVLGPEDLPVEVLQFHPTSDGILVSAAGTTVKVWDAAKQQPLTELAAHGDLVQSAVWSRDGALVGTACKDKQLRIFDPRTKPRASQSTQAHENSRDSRLAWMGTWEHLVSTGFNQMREREVKLWDTRFFSSALASLTLDTSLGCLVPLLDPDSGLLVLAGKGERQLYCYEVVPQQPALSPVTQCVLESVLRGAALVPRQALAVMSCEVLRVLQLSDTAIVPIGYHVPRKAVEFHEDLFPDTAGCVPATDPHSWWAGDNQQVQKVSLNPACRPHPSFTSCLVPPAEPLPDTAQPAVMETPVGDADASEGFSSPPSSLTSPSTPSSLGPSLSSTSGIGTSPSLRSLQSLLGPSSKFRHAQGTVLHRDSHITNLKGLNLTTPGESDGFCANKLRVAVPLLSSGGQVAVLELRKPGRLPDTALPTLQNGAAVTDLAWDPFDPHRLAVAGEDARIRLWRVPAEGLEEVLTTPETVLTGHTEKICSLRFHPLAANVLASSSYDLTVRIWDLQAGADRLKLQGHQDQIFSLAWSPDGQQLATVCKDGRVRVYRPRSGPEPLQEGPGPKGGRGARIVWVCDGRCLLVSGFDSQSERQLLLYEAEALAGGPLAVLGLDVAPSTLLPSYDPDTGLVLLTGKGDTRVFLYELLPESPFFLECNSFTSPDPHKGLVLLPKTECDVREVELMRCLRLRQSSLEPVAFRLPRVRKEFFQDDVFPDTAVIWEPVLSAEAWLQGANGQPWLLSLQPPDMSPVSQAPREAPARRAPSSAQYLEEKSDQQKKEELLNAMVAKLGNREDPLPQDSFEGVDEDEWD
